pIC50: −log10 of the molar value.
What was measured:
[1] = molecular target: CDK4/cyclin D1 complex (UniProt P11802); assay: cell-based or functional assay
[2] = molecular target: CDC2/cyclin B (UniProt P06493); assay: in vitro kinase assay; mixture of p27 and p16
[3] = molecular target: CDK2/cyclin E (UniProt P24941); assay: in vitro kinase assay; mixture of p27 and p16
[4] = molecular target: CDC2/cyclin B complex (UniProt P06493); assay: cell-based or functional assay
[5] = molecular target: CDK2/cyclin A complex (UniProt P24941); assay: cell-based or functional assay
[6] = molecular target: CDK2/cyclin E complex (UniProt P24941); assay: cell-based or functional assay

Chain of CDK4/cyclin D1 complex (P11802 whole entry, chain 1 of 2): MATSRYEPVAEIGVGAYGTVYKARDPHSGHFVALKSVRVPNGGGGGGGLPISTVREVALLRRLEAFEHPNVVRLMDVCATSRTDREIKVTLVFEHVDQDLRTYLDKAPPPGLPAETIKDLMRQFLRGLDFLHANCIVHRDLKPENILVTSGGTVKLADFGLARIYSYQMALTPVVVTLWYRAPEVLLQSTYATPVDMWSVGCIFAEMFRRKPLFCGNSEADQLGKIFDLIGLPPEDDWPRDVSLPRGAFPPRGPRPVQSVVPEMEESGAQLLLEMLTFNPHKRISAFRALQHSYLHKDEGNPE
Chain of CDK4/cyclin D1 complex (P24385 whole entry, chain 2 of 2, further chain): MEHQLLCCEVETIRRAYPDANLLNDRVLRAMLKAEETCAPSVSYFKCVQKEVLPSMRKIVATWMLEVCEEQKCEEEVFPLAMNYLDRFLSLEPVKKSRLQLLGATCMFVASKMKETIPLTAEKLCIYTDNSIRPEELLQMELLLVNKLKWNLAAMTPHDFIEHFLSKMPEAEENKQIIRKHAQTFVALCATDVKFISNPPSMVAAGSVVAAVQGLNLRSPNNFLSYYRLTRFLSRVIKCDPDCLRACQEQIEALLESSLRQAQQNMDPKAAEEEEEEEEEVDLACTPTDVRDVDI
Chain of CDC2/cyclin B (P06493 whole entry): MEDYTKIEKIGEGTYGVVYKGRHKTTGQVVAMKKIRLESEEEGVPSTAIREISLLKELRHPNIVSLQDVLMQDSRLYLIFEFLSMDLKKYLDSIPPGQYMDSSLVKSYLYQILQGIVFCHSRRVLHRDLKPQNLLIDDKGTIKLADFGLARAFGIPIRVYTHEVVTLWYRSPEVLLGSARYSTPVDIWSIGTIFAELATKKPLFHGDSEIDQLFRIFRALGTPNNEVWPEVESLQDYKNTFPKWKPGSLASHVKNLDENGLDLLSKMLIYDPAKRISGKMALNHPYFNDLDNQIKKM
Chain of CDC2/cyclin B complex (P06493 whole entry, one chain of several): as the sequence (P06493 whole entry) above

| IC50, in vitro kinase activity (GST-Rb phosphorylation) [1] [nM] | pIC50 [2] | pIC50 [3] | IC50, in vitro kinase activity (histone H1 phosphorylation) [4] [nM] | IC50, in vitro kinase activity [5] [nM] | IC50, in vitro kinase activity (GST-Rb phosphorylation) [6] [nM] | Substance |
| --- | --- | --- | --- | --- | --- | --- |
| 63 | – | – | – | – | – | human p27 (from UniProt P46527 1-198) |
| – | 7.92 | 8.77 | – | – | – | p27 + p16 |
| 25 | – | – | 15 | 25 | 30 | p27-p16 fusion protein |
